This note sets out measurements from patent US9329180B2, “Preparation of anti-PEG antibody expressing cell and application thereof” (KAOHSIUNG MEDICAL UNIVERSITY, priority 2010, dated 2016).

Assay [1] is described as follows: Direct binding of PEG5K-131I to AGP3 antibody-coated and 3T3/AGP3 cell-coated plates (γ counter). How it is done:
(§1) To further investigate the potential mechanism that dictates the differential ability in detecting PEG by the cell surface-expressed anti-PEG antibody and coated AGP3 antibody, the present invention compared direct binding of PEG5K-biotin (FIG. 8A) or PEG5K-^131I (FIGS. 8B and 8C) to AGP3 antibody and 3T3/AGP3 cells precoated in 96-well plates.
The 3T3/AGP3 and 3T3/DNS cells (2×10^5 cells/well) were seeded overnight in 96-well plates in culture medium. After extensive washing, captures were fixed by 1% paraformaldehy for 3 min. Plates were blocked with 5% skim milk in PBS for 2 hours at 37° C. PEG5K-^131I was serially diluted and added to the cells at room temperature for 1 h. After washing, 1N NaOH was added to elute the bound PEG5K-^131I. The radioactivity of these samples was counted on a γ counter.

The nature of assay [2]: Direct binding of PEG5K-biotin, AGP3 antibody-based and 3T3/AGP3 cell-based ELISA. The settings on record: streptavidin-HRP and ABTS, 405 nm. How it is done:
as §1
The 3T3/AGP3 and 3T3/DNS cells (2×10^5 cells/well) were seeded overnight in 96-well plates in culture medium. After extensive washing, captures were fixed by 1% paraformaldehy for 3 min. Plates were blocked with 5% skim milk in PBS for 2 hours at 37° C. PEG5K-biotin was serially diluted and added to the cells at room temperature for 1 h. After washing, streptavidin-HRP and ABTS were sequentially added to the plates to quantify the captured PEG5K-biotin. Color development was measured at 405 nm on a microplate reader. Using this method, the detection limit of PEG5K-biotin in the 3T3/AGP3 cell-based ELISA was 15.6 ng/mL (FIG. 8A).
(An ELISA detects its analyte on a solid surface through an enzyme-linked reagent.)

Assay [3] in a line: 3T3/15-2 cell-based or 15-2 antibody-based sandwich ELISA (AGP4-biotin detection). In kind it is binding. The settings on record: cell-based versus antibody-based capture. As for the experimental part:
Anti-methoxyl-PEG cells were used as a platform to establish a sandwich ELISA to quantify all kinds of free methoxyl-PEG molecules. 3T3/15-2 cells were seeded into a 96 wells plate. After that, the methoxyl-PEG was added as an analyte, and then a biotinylated anti-PEG antibody (AGP4-Biotin) was used as a detecting antibody. Finally, streptavidin-HRP was added into the 96 wells plate. After adequate washing, the concentration of methoxyl-PEG was known by observing the color intensity of the matrix coated on the 96 wells plate. With existence of serum, this method can quantify all kinds of free methoxyl-PEG molecules (CH3O-PEG2K and CH3O-PEG5K), and the sensitivity was better than using 3T3/AGP3 platform. Therefore, the sandwich ELISA method using 3T3/15-2 platform can sensitively quantify all kinds of methoxyl-PEG molecules.
To test whether 3T3/15-2 cell-based or 15-2 antibody-based sandwich ELISA could be used to quantify CH3O-PEG molecules, CH3O-PEG (1K, 2K, 5K, and 20K Da) or Lipo-Dox (liposomal doxorubicin conjugated with CH3O-PEG2K) was added to 3T3/15-2 cell or 15-2 antibody coated 96 well/plates, respectively. Captured mPEG molecules were then quantified by sequential addition of biotinylated AGP4 antibody (AGP4-biotin), streptavidin-conjugated horseradish peroxidase (streptavidin-HRP) and ABTS substrate. […] The sensitivity depended on the length of the PEG chain. […]

Assay [4] deals with Lipo-Dox (liposomal doxorubicin conjugated with CH3O-PEG2K). Described as above. As to conditions: cell-based versus antibody-based capture. The assay is classed as binding. How it is done:
To test whether 3T3/15-2 cell-based or 15-2 antibody-based sandwich ELISA could be used to quantify CH3O-PEG molecules, CH3O-PEG (1K, 2K, 5K, and 20K Da) or Lipo-Dox (liposomal doxorubicin conjugated with CH3O-PEG2K) was added to 3T3/15-2 cell or 15-2 antibody coated 96 well/plates, respectively. Captured mPEG molecules were then quantified by sequential addition of biotinylated AGP4 antibody (AGP4-biotin), streptavidin-conjugated horseradish peroxidase (streptavidin-HRP) and ABTS substrate. […] The sensitivity depended on the length of the PEG chain. CH3O-PEG5K and CH3O-PEG2K could be effectively detected at concentrations as low as 1 nM, respectively.

B1: AGP3 antibody: monoclonal IgM antibody specific to the PEG backbone; VH SEQ ID NO: 1, VL SEQ ID NO: 2 (antibody, V domains shown)
VH: EVQLVESGGGLVKPGGSLKLSCAASGFTFSDYYMYWVRQTPEKRLEWVATISDDGTYTYYPHSVKGRFTISRDSAKNNLYLQLSSLKSEDTAMYYCARNDARGDYWGQGTSVTVSS
VL: DIVLTQAAFSNPVTLGTSASISCRSSKSLLHSNGITYLYWYLQKPGQSPQLLIYQMSNLASGVPDRFSSSGSGTDFTLRISRVEAEDVGVYYCAQNLELFTFGSGTKLEIKR
modifications: VH domain of AGP3 antibody; VL domain of AGP3 antibody
Take B1: the “signal intensity per well” value in assay [1] (0.74 μCi/mL PEG5K-131I) is recorded as 114; in assay [1] (2.22 μCi/mL PEG5K-131I) it was 210; in assay [1] (6.67 μCi/mL PEG5K-131I) it was 245; in assay [1] (20 μCi/mL PEG5K-131I), 293. In addition, the “detection limit of PEG5K-biotin” value in assay [2] is “failed to detect”.

B2: 15-2 antibody: anti-methoxyl-PEG IgG2b antibody; VH SEQ ID NO: 9, VL SEQ ID NO: 10 (antibody, V domains shown)
VH: EVKLEESGGGLVQPGGSMKLSCVASGFTFSNYWMNWVRQSPEKGLEWVTEIRSKSNNYATHYAESVKGRFTISRDDSKGSVYLQMNNLRAEDTGIYYCSNRYYWGQGTLVTVSA
VL: DIVMTQSHKFMSTSVRDRVTITCKASQDVNTSVAWYQQKPGQSPKLVIYWASTRHTGVPDRFTGSGSGTDFTLTISNVQSEDLADYFCLQYINYPYTFGGGTKLEIKR
modifications: VH domain of 15-2 antibody; VL domain of 15-2 antibody
Turning to B2, the “detection of CH3O-PEG molecules above molecular weight of 2000 Da” value in assay [3] is listed as “Only 3T3/15-2 cell-based sandwich ELISA could detect”. In addition, in assay [4], the “detection of Lipo-Dox, apparent avidity” value is reported as “similar, apparent avidities”.
